Positions count from the first letter of the chain named. Where no end group is shown, it is not given here.
B1: Drosophila Plk4 cryptic polo box (DmPlk4 CPB), aa 383-601 (domain or fragment, UniProt O97143 383-601, looked up)
chain: RISVPPLNTKRLLPTRYKTKNAIMSILRNGEVVLEFLKFRPTYNEDRINDICRISDDGQRIIIYQPDPGRGLPVREQPPDLQIPSGDCVYNYDNLPSKHWKKYIYGARFVGLVKSKTPKVTYFSTLGKCQLMETMTDFEIRFYSGAKLLKTPSEGLKVYDRNGMLLSDYSCSESRSLIEHGNECFTHCVNISNALEVAQTKDNSCFPVTIGRRPITDVQ
modifications: for crystallization: lysine methylated; for MST: labelled with Monolith NT.115 Labeling Kit RED-NHS
B2: ZYG-1 cryptic polo box (CPB), aa 338-564 (domain or fragment, C. elegans, UniProt Q9GT24 338-564, looked up)
chain: GTVPPSREDRNRSQLWPIRMDRLEGQRVCTAGGRYIVELDTRCRFEVAAQGNFVKRILIVEVDEMVQTVYVHRIPDRTVRGRNGEEELITLTNNPFVYTSYSQMPKEVQNDYMRLQKMVAVTISGRVAKVTFRRPSQFPDAQAQLMENGDLRIKLPRSVIVRKMDNGEIFNCIDGIATQKQAVSGITLTKVNEVYKYLIRFEQCLNGMDRGMVCFPIVFSAGTNMVG
modifications: for crystallization: selenomethionine-substituted, lysine methylated; for MST: labelled with Monolith NT.115 Labeling Kit RED-NHS

What was measured:
SAXS = target: the molecule itself; assay: SAXS
6×His-ZYG-1 CPB K454E = target: T1, 6×His-ZYG-1 CPB K454E (C. elegans, UniProt Q9GT24 338-564, K454E); assay: pull-down
T1 sequence (looked up): B2 chain with K117E

Binder	stoichiometry N (SAXS)	binding result (6×His-ZYG-1 CPB K454E)
B1	2	
MEDDAPMNLCNEQFEEIEDSPIDDNDNESFYNADGDVELEEEEVHE (domain or fragment, C. elegans, UniProt P91870 1-46, looked up, also: MBP fusion) [MBP-CeSPD-2 AR (aa 1-46), WT]		binds
B2	2	
